Measurements taken from article PMC5704485, “A unique cysteine-rich zinc finger domain present in a majority of class II ribonucleotide reductases mediates catalytic turnover” (The Journal of Biological Chemistry, 2017).
Several values for one entry are separate records, joined by “and”; a condition that tells them apart may be missing. Equal values may be shown once. Blank lines part the entries; values can stand above or below the compound they belong to.

Key:
[1] = molecular target: T1, NrdJd-wt (Snas 4560), full-length class II RNR (Stackebrandtia nassauensis, UniProt D3Q6G1); test: GEMMA oligomerization titration; format: binding; conditions: effector-induced tetramer/hexamer formation; 0.075 mg/ml protein; 40 mM ammonium acetate pH 7.8, equimolar MgCl2; possible further nucleotide site
T1 construct: gene Snas_4560; monomer/dimer, tetramer/hexamer with dATP or dGTP
T1 sequence (D3Q6G1 1-946): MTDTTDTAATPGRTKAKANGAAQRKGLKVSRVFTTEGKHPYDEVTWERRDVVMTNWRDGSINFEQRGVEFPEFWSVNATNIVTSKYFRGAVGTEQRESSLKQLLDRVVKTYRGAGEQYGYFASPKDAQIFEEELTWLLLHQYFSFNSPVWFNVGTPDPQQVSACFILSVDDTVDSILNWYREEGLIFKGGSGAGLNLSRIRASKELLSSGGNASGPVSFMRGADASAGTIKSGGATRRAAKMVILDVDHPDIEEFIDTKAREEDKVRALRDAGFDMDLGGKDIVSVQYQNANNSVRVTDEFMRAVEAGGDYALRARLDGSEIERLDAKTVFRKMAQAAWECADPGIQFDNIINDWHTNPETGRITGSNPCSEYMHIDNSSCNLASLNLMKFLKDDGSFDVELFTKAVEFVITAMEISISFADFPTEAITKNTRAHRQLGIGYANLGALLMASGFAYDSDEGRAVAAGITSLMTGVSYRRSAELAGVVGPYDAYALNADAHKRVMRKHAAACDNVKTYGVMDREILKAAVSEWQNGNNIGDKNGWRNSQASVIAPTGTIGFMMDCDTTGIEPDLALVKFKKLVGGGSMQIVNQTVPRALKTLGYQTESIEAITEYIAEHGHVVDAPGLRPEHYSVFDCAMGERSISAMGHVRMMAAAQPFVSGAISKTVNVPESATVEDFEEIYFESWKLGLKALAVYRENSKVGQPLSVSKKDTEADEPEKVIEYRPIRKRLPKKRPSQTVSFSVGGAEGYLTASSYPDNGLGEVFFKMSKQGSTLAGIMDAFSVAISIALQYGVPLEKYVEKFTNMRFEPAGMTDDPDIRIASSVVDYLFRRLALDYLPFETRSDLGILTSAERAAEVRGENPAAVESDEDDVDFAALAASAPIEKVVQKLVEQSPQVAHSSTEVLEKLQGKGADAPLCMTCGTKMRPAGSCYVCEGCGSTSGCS

[2] = molecular target: T2, C933A/C370A mixture (mutant mix) of NrdJd (Stackebrandtia nassauensis, UniProt D3Q6G1, C370A/C933A); test: effector titration of CDP reductase activity, HPLC; format: biochemical; conditions: half-maximal activation by allosteric effector; equimolar mixture of two single mutants; substrate CDP; reductant TCEP; AdoCbl; standard assay Tris pH 8.0, 20 mM MgCl2, room temperature
T2 construct: gene Snas_4560; equimolar mixture of two separately purified full-length single mutants (not a double mutant)

[3] = molecular target: T1, NrdJd-wt (Snas 4560), full-length class II RNR; test: effector titration of NDP reductase activity, HPLC; format: biochemical; conditions: half-maximal activation by allosteric effector, AdoCbl
[4] = molecular target: NrdJd-wt, the full-length version of the Stackebrandtia nassauensis class II ribonucleotide reductase (Stackebrandtia nassauensis); test: GEMMA (gas phase electrophoretic macromolecule analysis); 0.075 mg/ml NrdJd-wt, no effector; 40 mM ammonium acetate pH 7.8, 0.005% Tween 20, 0.2 mM DTT
[5] = molecular target: NrdJd-wt, the full-length version of the Stackebrandtia nassauensis class II ribonucleotide reductase (Stackebrandtia nassauensis); test: GEMMA (gas phase electrophoretic macromolecule analysis); 0.075 mg/ml NrdJd-wt with dCTP, equimolar MgCl2; 40 mM ammonium acetate pH 7.8, 0.005% Tween 20, 0.2 mM DTT
[6] = molecular target: NrdJd-wt, the full-length version of the Stackebrandtia nassauensis class II ribonucleotide reductase (Stackebrandtia nassauensis); test: GEMMA (gas phase electrophoretic macromolecule analysis); 0.075 mg/ml NrdJd-wt with dGTP (100 μM, and a titration of dGTP), equimolar MgCl2; 40 mM ammonium acetate pH 7.8, 0.005% Tween 20, 0.2 mM DTT
[7] = molecular target: NrdJd-wt, the full-length version of the Stackebrandtia nassauensis class II ribonucleotide reductase (Stackebrandtia nassauensis); test: GEMMA (gas phase electrophoretic macromolecule analysis); 0.075 mg/ml NrdJd-wt with 100 μM dTTP, equimolar MgCl2; 40 mM ammonium acetate pH 7.8, 0.005% Tween 20, 0.2 mM DTT
[8] = molecular target: NrdJd-wt, the full-length version of the Stackebrandtia nassauensis class II ribonucleotide reductase (Stackebrandtia nassauensis); test: GEMMA (gas phase electrophoretic macromolecule analysis); 0.075 mg/ml NrdJd-wt with dATP (100 μM, and a titration of dATP), equimolar MgCl2; 40 mM ammonium acetate pH 7.8, 0.005% Tween 20, 0.2 mM DTT
[9] = molecular target: NrdJd-wt, the full-length version of the Stackebrandtia nassauensis class II ribonucleotide reductase (Stackebrandtia nassauensis); test: SEC; analytical SEC, Superdex 200 Increase 3.2, 25 μl of 1.0 mg/ml protein, 50 mM Tris pH 7.5, 300 mM NaCl, 1 mM DTT, in the presence or absence of 100 μM effector (dATP)
[10] = molecular target: NrdJdΔCRD, the C-terminally deleted version of the S. nassauensis class II ribonucleotide reductase (Stackebrandtia nassauensis); test: GEMMA (gas phase electrophoretic macromolecule analysis); 0.025 mg/ml NrdJdΔCRD, with or without 100 μM effector (dATP); 40 mM ammonium acetate pH 7.8, 0.005% Tween 20, 0.2 mM DTT
NrdJdΔCRD = molecular target: T3, NrdJdΔCRD (Stackebrandtia nassauensis, UniProt D3Q6G1); test: effector titration of NDP reductase activity, HPLC; format: biochemical; conditions: half-maximal activation by allosteric effector; range printed for all effectors together; single preferred NDP substrate; AdoCbl; Tris pH 8.0, 20 mM MgCl2, 50 mM DTT, room temperature
T3 construct: gene Snas_4560; catalytic domain, residues 1-714 (codon 715 replaced by stop), C-terminal cysteine-rich domain removed; mainly monomer

[11] = molecular target: S. nassauensis NrdJd C933A, C-terminal (CRD) mutant (Stackebrandtia nassauensis)
[12] = single preferred NDP substrate (not given), Tris pH 8.0, 20 mM MgCl2, 50 mM DTT (standard conditions), room temperature, upper limit sta

T2 sequence (D3Q6G1 entry or part of it C370A): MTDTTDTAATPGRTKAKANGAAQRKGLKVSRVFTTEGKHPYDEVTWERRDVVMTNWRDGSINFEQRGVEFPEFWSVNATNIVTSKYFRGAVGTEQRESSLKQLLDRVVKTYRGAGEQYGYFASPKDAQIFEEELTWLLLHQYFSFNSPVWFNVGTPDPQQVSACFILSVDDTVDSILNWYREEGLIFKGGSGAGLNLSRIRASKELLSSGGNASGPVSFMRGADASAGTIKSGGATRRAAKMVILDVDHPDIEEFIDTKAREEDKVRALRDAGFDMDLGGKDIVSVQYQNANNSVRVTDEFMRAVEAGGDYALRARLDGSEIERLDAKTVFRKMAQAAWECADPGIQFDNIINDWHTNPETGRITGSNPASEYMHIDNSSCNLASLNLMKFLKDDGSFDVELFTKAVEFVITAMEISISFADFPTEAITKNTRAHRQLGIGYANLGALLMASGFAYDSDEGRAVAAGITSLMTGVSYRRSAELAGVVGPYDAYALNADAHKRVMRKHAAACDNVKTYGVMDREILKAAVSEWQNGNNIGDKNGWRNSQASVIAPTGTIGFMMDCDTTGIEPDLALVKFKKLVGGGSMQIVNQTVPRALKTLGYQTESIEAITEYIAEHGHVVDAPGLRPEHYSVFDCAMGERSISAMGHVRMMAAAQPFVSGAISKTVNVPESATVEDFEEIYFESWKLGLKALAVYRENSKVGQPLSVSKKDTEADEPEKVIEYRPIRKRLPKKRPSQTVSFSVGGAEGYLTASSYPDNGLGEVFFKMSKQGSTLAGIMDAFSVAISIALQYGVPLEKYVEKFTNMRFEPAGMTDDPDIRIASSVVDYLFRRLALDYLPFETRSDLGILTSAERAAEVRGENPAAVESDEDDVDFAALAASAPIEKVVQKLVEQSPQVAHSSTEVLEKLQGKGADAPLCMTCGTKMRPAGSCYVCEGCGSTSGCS
T2 sequence (D3Q6G1 entry or part of it C933A): as the sequence (D3Q6G1 entry or part of it C370A) above, with A370C, C933A counted along it

stoichiometry N [4]: 2 | stoichiometry N [5]: 2 | stoichiometry N [6]: 4 and 6 | stoichiometry N [7]: 2 | stoichiometry N [8]: 4 and 6 | stoichiometry N [9]: 4
Compound: NrdJd-wt, the full-length version of the Stackebrandtia nassauensis class II ribonucleotide reductase (enzyme)

RNR activity of the C933A/C370A mixture, substrate/effector GDP/dTTP (dimers only), TCEP as reductant, dTTP titrated 4 to 1000 μM, relative to NrdJd-wt (3 to 7%) (% of NrdJd-wt) [11]: 3 to 7 | Vmax of RNR activity of the C933A/C370A mixture, substrate/effector CDP/dATP (tetramers and hexamers), TCEP as reductant, relative to NrdJd-wt (% of the wild type) [11]: 30
Compound: S. nassauensis NrdJd C370A, active site cysteine-deficient mutant (enzyme)

EC50 [3, 12]: < 4 µM
Compound: Nc1ccn([C@H]2C[C@H](O)[C@@H](COP(=O)(O)OP(=O)(O)OP(=O)(O)O)O2)c(=O)n1 [dCTP]

Continued, compound first:

Compound: Nc1ncnc2c1ncn2[C@H]1C[C@H](O)[C@@H](COP(=O)(O)OP(=O)(O)OP(=O)(O)O)O1 [dATP]
concentration with half the enzyme as tetramer or hexamer [1]: ~ 17 μmol liter^−1 | EC50 [2]: 15 ± 4.5 µM | EC50 ([3]; substrate CDP, reductant TCEP, standard assay Tris pH 8.0, 20 mM MgCl2, room temperature): < 4 µM

Compound: NrdJdΔCRD, the C-terminally deleted version of the S. nassauensis class II ribonucleotide reductase (domain or fragment)
stoichiometry N [10]: 2

Compound: Nc1ncnc2c1ncn2[C@@H]1O[C@H](COP(=O)(O)OP(=O)(O)OP(=O)(O)O)[C@@H](O)[C@H]1O [ATP]
KL (NrdJdΔCRD): the affinity of the C-terminal truncated enzyme toward each tested effector is reduced | EC50 [3, 12]: < 4 µM

Compound: Cc1cn([C@H]2C[C@H](O)[C@@H](COP(=O)(O)OP(=O)(O)OP(=O)(O)O)O2)c(=O)[nH]c1=O [dTTP]
EC50 [3, 12]: < 4 µM

Compound: Nc1nc2c(ncn2[C@H]2C[C@H](O)[C@@H](COP(=O)(O)OP(=O)(O)OP(=O)(O)O)O2)c(=O)[nH]1 [dGTP]
EC50 [3, 12]: < 4 µM
